Source: patent US20250188153A1

How the values were obtained:
Assay in all cases: ELISA on coated recombinant protein, OD 405 nm
[1] = target: hMPV A1 F (human metapneumovirus)
[2] = target: hMPV A1 F monomer (human metapneumovirus)
[3] = target: hMPV A1 F trimer (heated) (human metapneumovirus)
[4] = target: hMPV A2 F (human metapneumovirus)
[5] = target: hMPV B1 F (human metapneumovirus)
[6] = target: hMPV B2 F GCN4 (human metapneumovirus)
[7] = target: hMPV B2 F monomer (human metapneumovirus)
[8] = target: hMPV B2 F protein (his-tagged, not trypsin treated) (human metapneumovirus)
[9] = target: hMPV B2 F trimer (heated) (human metapneumovirus)

Binder | EC50 [1] | EC50 [2] | EC50 [3] | EC50 [4] | EC50 [5] | EC50 [6] | EC50 [7] | EC50 [8] | EC50 [9]
MPV467 (antibody, V domains shown) VH: EVQLVESGGGVVRPGTSLRVSCAAFDFNFRDYGMHWVRQAPGKGLEWVAGIWYDGSNKDYADSVKGRFTISRDNSQNTLYLQMNSLRVEDTAVYYCARDPRTHREGALSHFDSWGQGTLVTVSS VL: PNELTQDPAVSVALGQTVRITCQGDSLRNYFAGWYQQKPGQAPLLVLYGENIRPSGIPDRFSGSSSGNTVSLTITGAQAEDEADYYCNSRDNSGNHWVFGGGTRLTVL | 0.38 µg/mL | 0.053 µg/mL | 0.26 µg/mL | 0.12 µg/mL | 0.12 µg/mL | 0.061 µg/mL | 0.06 µg/mL | 0.37 µg/mL | 0.65 µg/mL
MPV478 (antibody, V domains shown) VH: EVQLVQSGAEVKKPGASVKVSCNASGYTFTGYYIHWVRQAPGQGLEWMGWINPRSGGTNYAQKFQGRVTLTRDTSITTAYMDVTRLRPDDTAVYYCATTREGIVLMPRGRGDDALDTWGQGTTVIVSS VL: DIVMTQSPVSLTVSLGERATINCKSSQSVLSTSNNENYLAWYQQKPGQPPNLLIYWASTRESGVPDRFSGSGSGTDFTLTISSLQAEDVAVYYCQQYFATPITFGPGTKVDVK | 0.059 µg/mL | 0.012 µg/mL | 0.024 µg/mL | 0.021 µg/mL | 0.022 µg/mL | 0.02 µg/mL | 0.02 µg/mL | 0.027 µg/mL | 0.02 µg/mL
MPV488 (antibody, V domains shown) VH: EVQLVQSGFEVKKPGASVKVSCKASGYNFNNYGISWVRQAPGQGLEWMGWISAYTGNTNEAQKFQGRVSMTTDTSTSTAYMEVRSLRSDDTAVYYCARDIGSSMFYSYFYGMDVWGQGTTVIVSS VL: SLSVSLGERATINCKSSESVLYNSNNENYLDWYQQKPGQPPKLLIYWASTRASGVPDRFSGSASGTDFTLTISSLQAEDVAVYYCQQYYSTPRTFGQGTKVEIK |  |  |  |  |  | 0.073 µg/mL | 0.063 µg/mL |  | 
MPV491 (antibody, V domains shown) VH: QVQLQESGPGLVKSSQTLSLTCTVSGGSISSVTSHWTWIRQHPGKGLEWIGYIFSSGTTYYSPSLRSRLTMSVDTSKNQFSLQLSSVTAADTAMYYCARGIYCGDSCYKGTDYWGRGTLVTVSS VL: IRLMTQTPVTLPVTPGEPASISCRSSQSLLHSNGYNYLDWYLQKPGQSPQLLIYRGSTRASGVPDRFSGSGSGTEFTLKISRVEAEDVGVYYCMQGLQTPYTFGQGTKLESR | 1.5 µg/mL | 1.3 µg/mL | 1.1 µg/mL | 2.2 µg/mL | 2 µg/mL | 0.5 µg/mL | 0.48 µg/mL | 2.1 µg/mL | 1.7 µg/mL
MPV487 (antibody, V domains shown) VH: EVQLLESGGGLVQPGRSLRLSCTASGFTFDDYAMHWVRQLPGKGLEWVSGISWNSDNIGYADSVKGRFTISRDNGKNSLYLQMNSLRAEDTAFYYCAKDVRIDYDLLIGHIDYWGPGTLVTVSS VL: TQSPVTLSLSPGERATLSCRASQSFGGYCAWYQQKPGQSPRLLIYDASNRATGVPARFSGSGSGTDFTLTISSLEPEDSAVYFCQQRGNWPIFGQGTRLEI | 0.11 µg/mL | 0.13 µg/mL |  | 0.1 µg/mL | 0.065 µg/mL | 0.071 µg/mL | 0.099 µg/mL | 0.37 µg/mL | 0.54 µg/mL
MPV481 (antibody, V domains shown) VH: EVQLVQSGGGLVKPGGSLRLSCAASGLPFNNAWMNWVRQAPGKGLEWVGRIKSKIDGGTTEYAAPVKGRFTISRDDSENTLYLQMNSLRTEDTAVYYCTTEYYALLSGNYSDCWGQGTLVTVSS VL: DIVMTQSPFSLSLSPGERATLSCRASQSIKRAYLGWYQQKPGQAPRLLIYGASNRATGIPDRFSGSGSGTDFTLTISRLEPEDFAVYYCQQYGDSPGGSFGQGTKLEIR | 0.31 µg/mL | 0.17 µg/mL | 0.28 µg/mL | 0.11 µg/mL |  | 0.11 µg/mL | 0.2 µg/mL | 0.16 µg/mL | 0.31 µg/mL
MPV477 (antibody, V domains shown) VH: EVQLVQSGAEVKKPGASVEVSCKTSGYTFTDYYLHWVRQAPGQGLEWMGWINPRSGGTKYGQKFQGRVTMTRDTSISTAYMDLRGLRSDDTAVYYCARAPLLTVYAVAHRSGENRFDPWGQGTVTVSS VL: QPPSLSGAPGQTVTISCTGSGSNIGAGYDVNWYQCLPGTAPKLLMFDNSNRPSGVPDRFSGSRSGASASLAITGLQAEDEADYYCQSYDSGLSGWVFGGGTKLTVL | 0.083 µg/mL | 0.049 µg/mL | 0.087 µg/mL | 0.023 µg/mL | 0.02 µg/mL | 0.037 µg/mL | 0.21 µg/mL | 0.063 µg/mL | 0.063 µg/mL
MPV456 (antibody, V domains shown) VH: QVQLQESGPGVVKPSGTLSLTCGVSGGSISSSYWWSWVRQPPGKGLEWIGEIYHSGSTNYNPSLKRRVTISVDKSKNQFSLKVTSVTAADTAVYYCARGPIQYYDILTEERVGYCDYWGQGTLVTVSS VL: TLSASVGDRVTITCRASQSISSWLAWFQQKPGKAPKLLIYKTSSLESGVPSRFSGSGSGTEFTLTISSLQPDDFATYYCQEYNSYSRTFGQGTKVEIK | 1.4 µg/mL | 3.5 µg/mL | 1.8 µg/mL | 0.42 µg/mL | 0.49 µg/mL | 0.69 µg/mL |  | 0.61 µg/mL | 1.8 µg/mL
MPV486 (antibody, V domains shown) VH: EVQLVESGGHLVQSGGSLRLSCAASGFTFSNYILNWVRQAPGKGLEWISYITGGSSAIYYADSVKGRFTISRDDAKNSLYLQMNNLRAEDTAVYYCARSHGYDSSGYYYYFAMDVWGQGTTVTVSS VL: QSVLTQPPSASGTPGQRVTISCSGSNSNIESNTVNWYQQIPGTAPKLLIYSDNRRPSGVPDRFSGSKSGTSASLAISGLQSEDEADYYCAAWDDSLIGYVFGTGTKVTV | 0.053 µg/mL | 0.088 µg/mL | 0.22 µg/mL | 0.043 µg/mL | 0.1 µg/mL | 0.1 µg/mL | 0.11 µg/mL | 0.23 µg/mL | 0.24 µg/mL
MPV485 (antibody, V domains shown) V domain 1: EVQLQEPGPGLVKPSETLSLTCTVSGGSISSTNSFWGWVRQPPGKGLEWIGSIYYSGTTYYNSSLKSRVTISVDTSKNQFSLRLSSVTAADTAVYYCARQGLTSSWYDGSGLDVWG V domain 2: SYELTQPPSVSVSPGQTASITCSGDKLGNKYACWYQQRPGQSPVLVIYQDTKRPSGIPERFSGSNSGNTATLTISGTQAMDEADYYCQAWDSNTVVFGGGTKLTVL | 0.11 µg/mL | 0.24 µg/mL | 0.32 µg/mL | 0.086 µg/mL | 0.078 µg/mL | 0.16 µg/mL | 0.18 µg/mL | 0.18 µg/mL | 0.36 µg/mL
MPV414 (antibody, V domains shown) VH: QVQLVQSGPEVKKPGSSVMVSCKTSGGNFNNFAISWVRQAPGQGLEWMGGIVPIFGTANYAQKSQDRVTITADPSSSTAYLQLSSLTSDDTAIYYCARDLGRSSNYYYYSVFESWGQGTLVTVSS VL: DIVMTQSPATLSLSPGERATLSCRASQSVGDKLAWYQQKPGQAPRLLIYGASTRATDIPARFSGSGSGTEFTLTVSSLQPEDFAVYYCQQYENWPPITFGQGTRLEIK | 0.15 µg/mL | 0.074 µg/mL |  | 0.034 µg/mL | 0.034 µg/mL | 0.061 µg/mL | 0.19 µg/mL | 1.8 µg/mL | 
MPV482 (antibody, V domains shown) VH: EVQLVQSGGGVVQPGRSLRLSCAASGFTFSSFAMHWVRQAPGKGLEWVALISDDGNNKYHADSVKGRFTISRDSSKNTLYLQMNSLRGEDTAVYYCARDGSVVGAAAHCDHWGQGTLVTVSS VL: SYELTQPPSVSVSPGQTARITCSGDALPNQCAYWYQQKPGLAPVLLIYKDKERPSGIPERFSGSISGTTVTLTISGVQAEDEADYYCQSSDSSSTVVFGGGTKLTVL | 0.13 µg/mL | 0.29 µg/mL | 0.35 µg/mL | 0.057 µg/mL | 0.072 µg/mL | 0.092 µg/mL | 0.2 µg/mL | 0.33 µg/mL | 
MPV489 (antibody, V domains shown) VH: EVQLLESGGGLVQPGGSLRLSCAASKFTFNNYEMNWLRQAPGKGLEWVSSISSSGDTIHNADSVKGRFIISRDNAKNSLHLQMNGLRAEDTAVYYCARAGSGWAYDAFDIWGLGTMVTVSS VL: LSASVGDRVTITCRASQSISSFLNWYQQKPGKAPKLLMYAASSLPVGVPSRFSGSGSGPEYTLTISNLQPEDFATYYCQQGYSSPPTFGGGTRLEVK | 5 µg/mL | 7 µg/mL | 4.5 µg/mL | 9.3 µg/mL |  | 2.3 µg/mL | 1.3 µg/mL | 4.2 µg/mL | 18 µg/mL
MPV86 (antibody, V domains shown) VH: QVQLVQSGAEVKKPGSSVKVSCKASGDTFNDVALSWVRQAPGQGLEWLGGIIPFFGTANYAQRFQDRVTITADASTSTAYLELGGLRSEDTAVYYCARGWSCRNITCFMMGYYFYIMDVWGQGTLVTVSS VL: LSLSPGERATLSCRASQSVGNFLAWYQQKPGQTPRLLIQDASNRATGIPARFSGTGSGTDFTLTISSLEPEDFAVYYCQQRSNWPPTFGPGTKVDIK | 0.3 µg/mL | 0.18 µg/mL |  | 0.083 µg/mL | 0.073 µg/mL | 0.12 µg/mL | 0.21 µg/mL | 5.7 µg/mL | 
MPV454 (antibody, V domains shown) VH: EVQLVESGGGLVKPGGSLRLSCSTSGFVFSSYAMHWVRQAPGKGLEHVSAISSTGDNTHYADSVKGRFTISRDNSRGRLYLQMTSVRPEDAALYYCVKDLYSGRFYYFLDDWGQGTRIIVSS VL: DIQVTQSPSSLSASVGDRVTISCRASQNISNYLNWFQQRPGKAPKLLIYVASTLQSGAPSRFSGSGSGTDFTLTITDLQPEDFATYYCQQSYNTPPITFGQGTRLEIK | 0.49 µg/mL | 0.052 µg/mL | 0.14 µg/mL | 0.12 µg/mL | 0.12 µg/mL | 0.068 µg/mL | 0.046 µg/mL | 5.2 µg/mL | 0.15 µg/mL
